Data from patent US7838294B2, “Inhibitors of the JNK signal transduction pathway and methods of use” (University of Massachusetts, priority 1997, dated 2010).

Assays:
[1] = target: T1, JNK1 (Homo sapiens, UniProt P45983); experiment: GST-fusion pull-down from cell lysates, Flag immunoblot: JNK1; type: binding; details: GST pull-down, Flag immunoblot
T1 construct: expressed in transfected cells
Description: To test whether JIP-1 binding to JNK is also isoform-dependent, a binding assay was utilized. Cell lysates (1 ml in TLB) containing JNK1, JNK2, or p38 MAP kinase, each tagged with the Flag epitope, were incubated with 5 μg GST-fusion proteins pre-bound to 10 μl glutathione-Sepharose. The GST fusion proteins used contain residues 127-202 (SEQ ID NO:15), 203-281 (SEQ ID NO:16), 164-240 (SEQ ID NO:17), or 127-281 (SEQ ID NO:4) of JIP-1. The GST-ATF2 fusion protein contains residues 1-109 of ATF2, and the GST-Jun fusion protein contains residues 1-79 of c-Jun. After incubation for one hour at 4° C. and three washes with TLB, bound proteins were detected by protein immunoblot analysis with the M2 monoclonal antibody, which is specific for the Flag epitope. Dérijard, et al., supra; Sluss et al., supra; Gupta et al., supra. […] This finding is consistent with the results of previous studies. In contrast, when GST-JIP-1 fusion proteins containing residues 127-202 or 127-281 of JIP-1 were tested in the assay, these proteins bound both JNK1 and JNK2.
The GST-JIP-1 fusion proteins containing various portions of the JIP-1 gene were used to define regions of JIP-1 that are required for JNK interaction. A GST-JIP-1 fusion protein containing residues 127-281 of JIP-1 bound both JNK1 and JNK2.
To more precisely define the JIP-1 sequence required for JNK binding activity, additional […] fusion proteins were constructed. These fusion proteins contained residues 135-202 (SEQ ID NO:18), 144-202 (SEQ ID NO:19), 154-202 (SEQ ID NO:20), 164-202 (SEQ ID NO:21), 127-143 (SEQ ID NO:22), 127-153 (SEQ ID NO:23), or 127-163 (SEQ ID NO:24) of JIP-1. Proteins containing residues 127-202, 135-202, 144-202, […], and 127-163 all bound both JNK1 and JNK2. Thus, JIP-1 residues 144-163 are important for the interaction of JIP-1 with JNK.

[2] = system: ERK2; experiment: Immune complex protein kinase assay: ERK, substrate MBP; type: biochemical, Chinese hamster; details: in vitro, 3 μg myelin basic protein
Description: (§1) To test whether JIP-1 competes with Jun and ATF2 for interaction with JNK, the effect of JIP-1 on transcription factor-mediated phosphorylation of exogenous substrates was analyzed using an in vitro protein kinase assay. In these experiments, Chinese hamster ovary (CHO) cells were serum-starved for one hour. In some experiments, the cells were treated with 10 ng/ml mouse interleukin 1 or 100 nM phorbol myristic acetate. JNK, p38, and ERK protein kinase activity was measured in an immune complex kinase assay using 3 μg of the substrates GST-Jun, GST-ATF2, and myelin basic protein (MBP), respectively. Protein kinase assays were performed using 40 μl 20 mM Hepes (pH 7.4), 20 mM MgCl2, 20 mM β-glycerophosphate, 2 mM dithiothreitol, 0.1 mM sodium orthovanadate, 50 μM [γ-^32P]ATP (10 Ci/mmol). After incubation for 30 minutes at 30° C., phosphorylation of substrates was analyzed by polyacrylamide gel electrophoresis and autoradiography.

[3] = system: JNK; experiment: Immune complex protein kinase assay: JNK, substrate GST-Jun; type: biochemical, Chinese hamster; details: in vitro, 3 μg GST-Jun, 30 minutes at 30° C.
Description: as §1

[4] = system: Elk-1 transcriptional activity; experiment: GAL4 luciferase reporter assay in CHO cells: GAL4-Elk-1; type: cell-based, Chinese hamster; details: FIG. 4B
Description: In these experiments, CHO cells were cotransfected with constructs encoding the transcription factors and JIP-1 using previously described methods. Dérijard et al., supra; Sluss et al., supra; Gupta et al., supra. A luciferase reporter plasmid was used to monitor the expression of the transcription factors. Transfection efficiency was determined using a β-galactosidase expression vector. Constructs used in these experiments included GAL4 fusions with the c-myc, Sp1 and VP16 activation domains (described in Whitmarsh et al., Science, 269:403 (1995); Davis, Science, 269:403 (1995); Gille et al., Curr. Biol., 5:1191 (1995)). […]
Transfected cells were activated by treatment with 10% (v/v) fetal calf serum, and luciferase and β-galactosidase activities were measured in cell lysates at 48 hours post-transfection. The data are presented as the ratio of luciferase activity (light units) to β-galactosidase activity (OD units) measured in the cell extracts (mean±SEM (n=3)), and are normalized to the luciferase activity detected in the absence of JBD (FIGS. 4A and 4B) or ATF2 (FIG. 4C).

[5] = target: p38 (Homo sapiens, UniProt Q16539); experiment: Co-immunoprecipitation of JIP-1 with p38 (specificity control); type: binding; details: control experiment
[6] = target: T2, JNK2 (Homo sapiens, UniProt P45984); experiment: Co-immunoprecipitation of JIP-1 with JNK2; type: binding; details: protein immunoblot
T2 construct: expressed in transfected cells

p38, sequence (Q16539 whole entry): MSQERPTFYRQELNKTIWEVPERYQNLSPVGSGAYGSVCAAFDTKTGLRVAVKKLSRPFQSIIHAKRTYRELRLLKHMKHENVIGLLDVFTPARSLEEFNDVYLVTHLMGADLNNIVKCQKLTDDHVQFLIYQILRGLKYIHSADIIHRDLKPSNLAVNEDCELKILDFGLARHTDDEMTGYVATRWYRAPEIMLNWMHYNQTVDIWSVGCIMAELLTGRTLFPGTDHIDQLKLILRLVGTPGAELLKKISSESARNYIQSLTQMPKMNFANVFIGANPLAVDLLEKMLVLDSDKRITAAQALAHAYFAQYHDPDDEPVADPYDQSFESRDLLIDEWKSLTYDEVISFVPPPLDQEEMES
T1 sequence (P45983 1-384 isoform P45983-2): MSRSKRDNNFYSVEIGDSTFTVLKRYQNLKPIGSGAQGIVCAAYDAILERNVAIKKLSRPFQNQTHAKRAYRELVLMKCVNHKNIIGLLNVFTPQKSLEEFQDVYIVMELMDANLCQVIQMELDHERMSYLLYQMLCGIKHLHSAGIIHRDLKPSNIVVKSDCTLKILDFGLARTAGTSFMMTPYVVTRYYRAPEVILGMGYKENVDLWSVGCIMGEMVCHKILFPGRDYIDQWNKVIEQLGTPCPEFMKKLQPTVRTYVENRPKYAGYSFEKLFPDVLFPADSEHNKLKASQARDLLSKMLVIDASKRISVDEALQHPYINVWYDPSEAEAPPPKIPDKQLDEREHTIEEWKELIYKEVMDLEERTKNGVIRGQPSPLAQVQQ

B1: JIP-1: 660 amino acid murine cytoplasmic protein that specifically binds JNK (protein)
chain: MAERESGLGGGAASPPAASPFLGLHIASPPNFRLTHDISLEEFEDEDLSEITDECGISLQCKDTLSLRPPRAGLLSAGSSGSAGSRLQAEMLQMDLIDAAGDTPGAEDDEEEEDDELAAQRPGVGPPKAESNQDPAPRSQGQGPGTGSGDTYRPKRPTTLNLFPQVPRSQDTLNNNSLGKKHSWQDRVSRSSSPLKTGEQTPPHEHICLSDELPPQGSPVPTQDRGTSTDSPCRRSAATQMAPPSGPPATAPGGRGHSHRDRIHYQADVRLEATEEIYLTPVQRPPDPAEPTSTFMPPTESRMSVSSDPDPAAYSVTAGRPHPSISEEDEGFDCLSSPERAEPPGGGWRGSLGEPPPPPRASLSSDTSALSYDSVKYTLVVDEHAQLELVSLRPCFGDYSDESDSATVYDNCASASSPYESAIGEEYEEAPQPRPPTCLSEDSTPDEPDVHFSKKFLNVFMSGRSRSSSAESFGLFSCVINGEEHEQTHRAIFRFVPRHEDELELEVDDPLLVELQAEDYWYEAYNMRTGARGVFPAYYAIEVTKEPEHMAALAKNSCVLEISVRGVKIGVKADDALEAKGNKCSHFFQLKNISFCGYHPKNNKYFGFITKHPADHRFACHVFVSEDSTKALAESVGRAFQQFYKQFVEYTCPTEDIYLE
binding of JNK compared with binding of JNK to ATF2 or c-Jun [1]: significantly greater | phosphorylation of substrate by ERK2 [2]: no significant change | phosphorylation of c-Jun by JNK [3]: markedly inhibited | basal transcriptional activity of Elk-1 mutated at JNK phosphorylation sites ([4]; GAL4-Elk-1 (S383A)): not markedly inhibited | Elk-1 transcriptional activity ([4]; wild type GAL4-Elk-1, CHO cells): partial inhibition | co-immunoprecipitation of JIP-1 with p38 [5]: did not co-immunoprecipitate | co-immunoprecipitation of JIP-1 with JNK2 [6]: observed
